Experimental data as given in US20170121390A1.

Target: HCV E1-E2 protein complex of hepatitis C virus isolate H77 (genotype 1a), expressed from plasmid pcDNA3.1-E1E2 (hepatitis C virus isolate H77 (genotype 1a)) (UniProt P27958)
Test: cell-based or functional assay

Question: What does the source list for “fully human monoclonal antibody Adalimumab (brand name Humira)”?
Answer: Degree of inhibition (times): 1.09 times; Infection effectiveness (percentage of fluorescent cells): 58.1%
